{"source": "patent US10799597B2", "about": "“Subcutaneous administration of antibody-drug conjugates for cancer therapy” (Immunomedics, Inc., priority 2017, dated 2020)", "key": {"[1]": {"tested_on": "COLO 205 colonic adenocarcinoma xenografts", "conditions": "0.4 mg/kg SN-38 twice weekly×4 weeks", "protocol": "Animals were treated twice weekly for 4 weeks as indicated by the arrows.\nAnimals were implanted subcutaneously with different human cancer cell lines. Tumor volume (TV) was determined by measurements in 2 dimensions using calipers, with volumes defined as: L×w^2/2, where L is the longest dimension of the tumor and w is the shortest. […] This dosing frequency reflected a consideration of the conjugate's serum half-life in vitro, to allow a more continuous exposure to the ADC.\nGrowth curves are shown as percent change in initial TV over time. Statistical analysis of tumor growth was based on area under the curve (AUC). Profiles of individual tumor growth were obtained through linear-curve modeling. An f-test was employed to determine equality of variance between groups before statistical analysis of growth curves. A 2-tailed t-test was used to assess statistical significance between the various treatment groups and controls, except for the saline control, where a 1-tailed t-test was used (significance at P≤0.05). Statistical comparisons of AUC were performed only up to the time that the first animal within a group was euthanized due to progression."}, "[2]": {"test": "Phase I/II clinical trial of IMMU-132 (Example 9): related adverse events", "protocol": "To optimize cumulative treatment with minimal delays, phase II is focusing on 8 and 10 mg/kg (n=30 and 14, respectively). […] [table]"}, "[3]": {"test": "Tolerability in Swiss-Webster mice", "assay_type": "in vivo"}, "Calu-3": {"tested_on": "Calu-3", "test": "Signaling events (p21Waf1/Cip1, p53) in Calu-3 cells", "assay_type": "cell-based, human", "source_text": "SN-38 is known to activate several signaling pathways in cells, leading to apoptosis (e.g., Cusack et al., 2001, Cancer Res 61:3535-40; Liu et al. 2009, Cancer Lett 274:47-53; Lagadec et al., 2008, Br J Cancer 98:335-44). Our initial studies examined the expression of 2 proteins involved in early signaling events (p21^Waf1/Cip1 and p53) and 1 late apoptotic event [cleavage of poly-ADP-ribose polymerase (PARP)] in vitro (not shown)."}, "[4]": {"conditions": "49 patients reporting related AE"}, "[5]": {"conditions": "related AE, N = 47 patients, CTCAE v 4.0"}}, "data": [{"substance": "IMMU-132: ADC of the humanized hRS7 anti-Trop-2 antibody conjugated by a pH-sensitive linker (CL2A) to SN-38", "values": [{"measurement": "tumor growth vs. saline and hA20-CL2A-SN-38", "setting": "[1]", "value": "significantly inhibited tumor growth"}, {"measurement": "alopecia", "setting": "[2]; [4]", "value": 40, "unit": "%"}, {"measurement": "diarrhea", "setting": "[2]; [4]", "value": 47, "unit": "%"}, {"measurement": "fatigue", "setting": "[2]; [4]", "value": 55, "unit": "%"}, {"measurement": "nausea", "setting": "[2]; [4]", "value": 53, "unit": "%"}, {"measurement": "neutropenia G4", "setting": "[2]; [4]", "value": 4, "unit": "%"}, {"measurement": "vomiting", "setting": "[2]; [4]", "value": 32, "unit": "%"}, {"measurement": "Abdominal pain, Grade 3, patients (%)", "setting": "[2]; [5]", "value": 0}, {"measurement": "Abdominal pain, Grade 4, patients (%)", "setting": "[2]; [5]", "value": 0}, {"measurement": "Anemia, Grade 3, patients (%)", "setting": "[2]; [5]", "value": "2 (4%)"}, {"measurement": "Anemia, Grade 4, patients (%)", "setting": "[2]; [5]", "value": 0}, {"measurement": "Deep vein thrombosis, Grade 3, patients (%)", "setting": "[2]; [5]", "value": "1 (2%)"}, {"measurement": "Deep vein thrombosis, Grade 4, patients (%)", "setting": "[2]; [5]", "value": 0}, {"measurement": "Diarrhea, Grade 3, patients (%)", "setting": "[2]; [5]", "value": "4 (9%)"}, {"measurement": "Diarrhea, Grade 4, patients (%)", "setting": "[2]; [5]", "value": 0}, {"measurement": "Dysgeusia, Grade 3, patients (%)", "setting": "[2]; [5]", "value": 0}, {"measurement": "Dysgeusia, Grade 4, patients (%)", "setting": "[2]; [5]", "value": 0}, {"measurement": "Fatigue, Grade 3, patients (%)", "setting": "[2]; [5]", "value": "4 (9%)"}, {"measurement": "Fatigue, Grade 4, patients (%)", "setting": "[2]; [5]", "value": 0}, {"measurement": "Febrile Neutropenia, Grade 3, patients (%)", "setting": "[2]; [5]", "value": "1 (2%)"}, {"measurement": "Febrile Neutropenia, Grade 4, patients (%)", "setting": "[2]; [5]", "value": "2 (4%)"}, {"measurement": "Hypokalemia, Grade 3, patients (%)", "setting": "[2]; [5]", "value": "1 (2%)"}, {"measurement": "Hypokalemia, Grade 4, patients (%)", "setting": "[2]; [5]", "value": 0}, {"measurement": "Nausea, Grade 3, patients (%)", "setting": "[2]; [5]", "value": 0}, {"measurement": "Nausea, Grade 4, patients (%)", "setting": "[2]; [5]", "value": 0}, {"measurement": "Neutropenia, Grade 3, patients (%)", "setting": "[2]; [5]", "value": "11 (24%)"}, {"measurement": "Neutropenia, Grade 4, patients (%)", "setting": "[2]; [5]", "value": "2 (4%)"}, {"measurement": "Pyrexia, Grade 3, patients (%)", "setting": "[2]; [5]", "value": 0}, {"measurement": "Pyrexia, Grade 4, patients (%)", "setting": "[2]; [5]", "value": 0}, {"measurement": "Vomiting, Grade 3, patients (%)", "setting": "[2]; [5]", "value": "1 (2%)"}, {"measurement": "Vomiting, Grade 4, patients (%)", "setting": "[2]; [5]", "value": 0}, {"measurement": "WBC Decrease, Grade 3, patients (%)", "setting": "[2]; [5]", "value": "1 (2%)"}, {"measurement": "WBC Decrease, Grade 4, patients (%)", "setting": "[2]; [5]", "value": 0}, {"measurement": "chloride levels, range", "setting": "[3]; 2 highest dosage groups, upper end of normal range 115 mmol/L", "value": "116 to 127", "unit": "mmol/L"}, {"measurement": "weight loss", "setting": "[3]; 2 i.p. doses over 3 days of 4, 8, and 12 mg SN-38/kg", "value": "minimal transient weight loss"}, {"measurement": "mice with elevated chloride levels", "setting": "[3]; 2×8 mg/kg group", "value": 57, "unit": "%"}, {"measurement": "mice with slightly elevated glucose levels", "setting": "[3]; 2×8 mg/kg, of 7 mice", "value": 5}, {"measurement": "elevated glucose levels, range", "setting": "[3]; 2×8 mg/kg, upper end of normal 263 mg/dL", "value": "273 to 320", "unit": "mg/dL"}, {"measurement": "mice with elevated chloride levels", "setting": "[3]; 2×12 mg/kg group", "value": 100, "unit": "%"}, {"measurement": "aspartate transaminase (AST)", "setting": "[3]; seven days after treatment, all 3 treatment groups, normal limit 298 U/L", "value": "rose above normal levels"}, {"measurement": "increase of p21Waf1/Cip1 expression over free SN-38", "setting": "Calu-3", "value": "more than 2 fold"}, {"measurement": "time of p53 upregulation", "setting": "Calu-3", "value": "≤ 24", "unit": "h"}]}]}
